“And” between values parts separate entries of the source, which are not always exact repeats. Equal values may be shown once.
Tests used:
[1] = molecular target: human DLL3 protein expressed on CHO-K1 recombinant cells (human DLL3 extracellular segment fused to EpCAM transmembrane and intracellular regions) (human) (UniProt Q9NYJ7); test: FACS, CHO-K1 hDLL3 cells, 0.16 nM antibody
[2] = molecular target: human DLL3 protein expressed on CHO-K1 recombinant cells (human DLL3 extracellular segment fused to EpCAM transmembrane and intracellular regions) (human) (UniProt Q9NYJ7); test: FACS, CHO-K1 hDLL3 cells, 100 nM antibody
[3] = molecular target: human delta-like ligand 3 (DLL3) on SHP77 cells (human) (UniProt Q9NYJ7); test: FACS on SHP77 cells
human delta-like ligand 3 (DLL3) on SHP77 cells (human), sequence (Q9NYJ7 27-618, stated change not applied): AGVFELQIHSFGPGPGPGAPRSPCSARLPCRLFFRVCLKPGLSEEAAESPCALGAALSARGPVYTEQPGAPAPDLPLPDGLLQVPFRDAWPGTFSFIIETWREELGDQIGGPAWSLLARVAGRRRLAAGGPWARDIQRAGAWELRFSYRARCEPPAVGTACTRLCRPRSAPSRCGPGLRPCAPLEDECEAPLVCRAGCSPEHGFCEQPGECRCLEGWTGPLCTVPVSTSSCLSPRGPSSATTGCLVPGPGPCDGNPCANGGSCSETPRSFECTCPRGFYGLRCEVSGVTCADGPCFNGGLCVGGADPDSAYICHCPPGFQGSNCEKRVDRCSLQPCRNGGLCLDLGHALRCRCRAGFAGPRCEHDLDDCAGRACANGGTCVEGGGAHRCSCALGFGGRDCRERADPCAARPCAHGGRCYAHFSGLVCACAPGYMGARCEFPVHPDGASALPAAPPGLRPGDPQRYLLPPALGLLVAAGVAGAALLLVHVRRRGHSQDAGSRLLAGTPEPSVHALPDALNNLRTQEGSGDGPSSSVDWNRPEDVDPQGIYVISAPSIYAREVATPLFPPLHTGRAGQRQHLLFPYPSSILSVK

[4] = molecular target: human DLL4 protein (Acro, Cat. No. DL4-H5227) (human) (UniProt Q9NR61); test: ELISA, coated hDLL4; maximum over 0.1, 1, 10, 100 nM antibody
human DLL4 protein (Acro, Cat. No. DL4-H5227) (human), sequence (Q9NR61 27-524 limits assumed): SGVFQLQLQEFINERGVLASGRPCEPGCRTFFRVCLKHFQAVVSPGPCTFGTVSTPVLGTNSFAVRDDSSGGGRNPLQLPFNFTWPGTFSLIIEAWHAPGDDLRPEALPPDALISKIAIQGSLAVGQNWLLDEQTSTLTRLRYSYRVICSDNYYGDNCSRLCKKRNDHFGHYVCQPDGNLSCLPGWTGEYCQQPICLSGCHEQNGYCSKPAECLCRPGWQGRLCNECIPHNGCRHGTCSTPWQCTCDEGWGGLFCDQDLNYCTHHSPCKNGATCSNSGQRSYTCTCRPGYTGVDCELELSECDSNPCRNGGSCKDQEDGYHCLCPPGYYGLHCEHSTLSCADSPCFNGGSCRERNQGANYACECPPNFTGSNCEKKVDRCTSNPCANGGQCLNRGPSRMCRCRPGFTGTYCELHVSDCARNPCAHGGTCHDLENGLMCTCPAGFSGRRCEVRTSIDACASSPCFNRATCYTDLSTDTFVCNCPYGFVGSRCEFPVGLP

[5] = molecular target: DLL3 endogenously expressed on NCI-H82 cells (UniProt Q9NYJ7); test: FACS on NCI-H82 cells; antibody 0.16 nM
DLL3 endogenously expressed on NCI-H82 cells, sequence (Q9NYJ7 27-618): as the sequence (Q9NYJ7 27-618, stated change not applied) above

[6] = molecular target: human DLL3 protein expressed on CHO-K1 recombinant cells (human DLL3 extracellular segment fused to EpCAM transmembrane and intracellular regions) (human) (UniProt Q9NYJ7); test: FACS, CHO-K1 hDLL3 cells, 4 nM antibody
[7] = molecular target: DLL3 endogenously expressed on NCI-H82 cells (UniProt Q9NYJ7); test: FACS on NCI-H82 cells; antibody 20 nM
[8] = molecular target: DLL3 endogenously expressed on NCI-H82 cells (UniProt Q9NYJ7); test: FACS on NCI-H82 cells; antibody 100 nM
[9] = molecular target: human DLL3 protein expressed on CHO-K1 recombinant cells (human DLL3 extracellular segment fused to EpCAM transmembrane and intracellular regions) (human) (UniProt Q9NYJ7); test: FACS, CHO-K1 hDLL3 cells, 20 nM antibody
[10] = molecular target: human DLL4 protein (human) (UniProt Q9NR61); test: ELISA, maximum over 0.1-100 nM
human DLL4 protein (human), sequence (Q9NR61 27-524 limits assumed): as the sequence (Q9NR61 27-524 limits assumed) above

[11] = molecular target: human DLL1 protein (human) (UniProt O00548); test: ELISA, maximum over 0.1-100 nM
human DLL1 protein (human), sequence (O00548 18-540 limits assumed): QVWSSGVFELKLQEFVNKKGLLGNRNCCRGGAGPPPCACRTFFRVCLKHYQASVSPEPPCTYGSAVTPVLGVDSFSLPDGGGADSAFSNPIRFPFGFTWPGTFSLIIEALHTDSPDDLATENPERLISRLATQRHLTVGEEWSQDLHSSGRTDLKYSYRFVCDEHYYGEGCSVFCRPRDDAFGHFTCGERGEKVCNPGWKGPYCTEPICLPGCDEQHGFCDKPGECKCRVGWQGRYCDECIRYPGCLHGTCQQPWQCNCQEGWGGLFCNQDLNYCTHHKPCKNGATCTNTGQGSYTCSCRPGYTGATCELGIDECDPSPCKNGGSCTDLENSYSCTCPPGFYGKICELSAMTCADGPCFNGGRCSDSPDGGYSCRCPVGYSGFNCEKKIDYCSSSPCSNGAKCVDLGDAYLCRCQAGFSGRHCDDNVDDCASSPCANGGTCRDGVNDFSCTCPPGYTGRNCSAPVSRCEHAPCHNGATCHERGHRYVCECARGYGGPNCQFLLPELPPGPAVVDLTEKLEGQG

[12] = molecular target: DLL3 endogenously expressed on NCI-H82 cells (UniProt Q9NYJ7); test: FACS on NCI-H82 cells; antibody 0.00128 nM
[13] = molecular target: human DLL3 protein expressed on CHO-K1 recombinant cells (human DLL3 extracellular segment fused to EpCAM transmembrane and intracellular regions) (human) (UniProt Q9NYJ7); test: FACS, CHO-K1 hDLL3 cells, 0.0064 nM antibody
[14] = molecular target: human DLL3 protein expressed on CHO-K1 recombinant cells (human DLL3 extracellular segment fused to EpCAM transmembrane and intracellular regions) (human) (UniProt Q9NYJ7); test: FACS, CHO-K1 hDLL3 cells, 0.8 nM antibody
[15] = molecular target: DLL3 endogenously expressed on NCI-H82 cells (UniProt Q9NYJ7); test: FACS on NCI-H82 cells; antibody 0.8 nM
[16] = molecular target: human DLL3 protein expressed on CHO-K1 recombinant cells (human DLL3 extracellular segment fused to EpCAM transmembrane and intracellular regions) (human) (UniProt Q9NYJ7); test: FACS, CHO-K1 hDLL3 cells, 0.032 nM antibody
[17] = molecular target: human DLL1 protein (Acro, Cat. No. DL1-H52H8) (human) (UniProt O00548); test: ELISA, coated hDLL1; maximum over 0.1, 1, 10, 100 nM antibody
human DLL1 protein (Acro, Cat. No. DL1-H52H8) (human), sequence (O00548 18-540 limits assumed): as above

[18] = molecular target: DLL3 endogenously expressed on NCI-H82 cells (UniProt Q9NYJ7); test: FACS on NCI-H82 cells; antibody 4 nM
[19] = molecular target: human DLL3 protein expressed on CHO-K1 recombinant cells (human DLL3 extracellular segment fused to EpCAM transmembrane and intracellular regions) (human) (UniProt Q9NYJ7); test: FACS, CHO-K1 hDLL3 cells, 0.00128 nM antibody
[20] = molecular target: DLL3 endogenously expressed on NCI-H82 cells (UniProt Q9NYJ7); test: FACS on NCI-H82 cells; antibody 0.032 nM
[21] = molecular target: DLL3 endogenously expressed on NCI-H82 cells (UniProt Q9NYJ7); test: FACS on NCI-H82 cells; antibody 0.0064 nM
[22] = molecular target: monkey DLL3 on CHO K1-cyno DLL3 cells (cynomolgus monkey DLL3 extracellular segment joined to EpCAM transmembrane and intracellular regions) (cynomolgus monkey); test: FACS, CHO K1-cyno DLL3 cells, 100 nM antibody
monkey DLL3 on CHO K1-cyno DLL3 cells (cynomolgus monkey DLL3 extracellular segment joined to EpCAM transmembrane and intracellular regions) (cynomolgus monkey), sequence (chain, as listed by the source limits assumed): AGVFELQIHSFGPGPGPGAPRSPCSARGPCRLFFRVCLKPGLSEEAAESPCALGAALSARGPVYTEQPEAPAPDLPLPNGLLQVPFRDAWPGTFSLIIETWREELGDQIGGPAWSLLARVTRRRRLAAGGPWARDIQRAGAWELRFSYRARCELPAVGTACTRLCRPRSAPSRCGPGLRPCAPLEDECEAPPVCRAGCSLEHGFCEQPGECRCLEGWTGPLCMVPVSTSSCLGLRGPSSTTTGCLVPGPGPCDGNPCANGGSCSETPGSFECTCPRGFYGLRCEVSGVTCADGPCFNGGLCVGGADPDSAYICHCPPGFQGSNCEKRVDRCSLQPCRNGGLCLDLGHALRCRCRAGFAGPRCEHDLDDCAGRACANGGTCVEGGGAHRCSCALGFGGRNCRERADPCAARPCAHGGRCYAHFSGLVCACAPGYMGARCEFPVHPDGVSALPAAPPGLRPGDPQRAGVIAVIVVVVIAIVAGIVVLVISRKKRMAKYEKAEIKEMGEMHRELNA

[23] = molecular target: human DLL3 endogenously expressed on SHP77 and NCI-H82 cells (human) (UniProt Q9NYJ7); test: FACS SHP77 cells, 0.00128 nM
human DLL3 endogenously expressed on SHP77 and NCI-H82 cells (human), sequence (Q9NYJ7 27-618): as the sequence (Q9NYJ7 27-618, stated change not applied) above

[24] = molecular target: monkey DLL3 on CHO K1-cyno DLL3 cells (cynomolgus monkey DLL3 extracellular segment joined to EpCAM transmembrane and intracellular regions) (cynomolgus monkey); test: FACS, CHO K1-cyno DLL3 cells, 0.00128 nM antibody
[25] = molecular target: monkey DLL3 on CHO K1-cyno DLL3 cells (cynomolgus monkey DLL3 extracellular segment joined to EpCAM transmembrane and intracellular regions) (cynomolgus monkey); test: FACS, CHO K1-cyno DLL3 cells, 0.032 nM antibody
[26] = molecular target: monkey DLL3 on CHO K1-cyno DLL3 cells (cynomolgus monkey DLL3 extracellular segment joined to EpCAM transmembrane and intracellular regions) (cynomolgus monkey); test: FACS, CHO K1-cyno DLL3 cells, 0.8 nM antibody
[27] = molecular target: human DLL3 endogenously expressed on SHP77 and NCI-H82 cells (human) (UniProt Q9NYJ7); test: FACS SHP77 cells, 0.0064 nM
[28] = molecular target: human DLL3 endogenously expressed on SHP77 and NCI-H82 cells (human) (UniProt Q9NYJ7); test: FACS SHP77 cells, 20 nM
[29] = molecular target: human DLL3 endogenously expressed on SHP77 and NCI-H82 cells (human) (UniProt Q9NYJ7); test: FACS SHP77 cells, 0.032 nM
[30] = molecular target: human DLL3 endogenously expressed on SHP77 and NCI-H82 cells (human) (UniProt Q9NYJ7); test: FACS SHP77 cells, 4 nM
[31] = molecular target: human DLL3 endogenously expressed on SHP77 and NCI-H82 cells (human) (UniProt Q9NYJ7); test: FACS SHP77 cells, 100 nM
[32] = molecular target: monkey DLL3 on CHO K1-cyno DLL3 cells (cynomolgus monkey DLL3 extracellular segment joined to EpCAM transmembrane and intracellular regions) (cynomolgus monkey); test: FACS, CHO K1-cyno DLL3 cells, 4 nM antibody
[33] = molecular target: monkey DLL3 on CHO K1-cyno DLL3 cells (cynomolgus monkey DLL3 extracellular segment joined to EpCAM transmembrane and intracellular regions) (cynomolgus monkey); test: FACS, CHO K1-cyno DLL3 cells, 0.0064 nM antibody
[34] = molecular target: human DLL3 endogenously expressed on SHP77 and NCI-H82 cells (human) (UniProt Q9NYJ7); test: FACS SHP77 cells, 0.8 nM
[35] = molecular target: monkey DLL3 on CHO K1-cyno DLL3 cells (cynomolgus monkey DLL3 extracellular segment joined to EpCAM transmembrane and intracellular regions) (cynomolgus monkey); test: FACS, CHO K1-cyno DLL3 cells, 0.16 nM antibody
[36] = molecular target: monkey DLL3 on CHO K1-cyno DLL3 cells (cynomolgus monkey DLL3 extracellular segment joined to EpCAM transmembrane and intracellular regions) (cynomolgus monkey); test: FACS, CHO K1-cyno DLL3 cells, 20 nM antibody
[37] = molecular target: human DLL3 endogenously expressed on SHP77 and NCI-H82 cells (human) (UniProt Q9NYJ7); test: FACS SHP77 cells, 0.16 nM

human DLL3 protein expressed on CHO-K1 recombinant cells (human DLL3 extracellular segment fused to EpCAM transmembrane and intracellular regions) (human), sequence (Q9NYJ7 other isoform, or with tags, fused parts or gaps limits assumed): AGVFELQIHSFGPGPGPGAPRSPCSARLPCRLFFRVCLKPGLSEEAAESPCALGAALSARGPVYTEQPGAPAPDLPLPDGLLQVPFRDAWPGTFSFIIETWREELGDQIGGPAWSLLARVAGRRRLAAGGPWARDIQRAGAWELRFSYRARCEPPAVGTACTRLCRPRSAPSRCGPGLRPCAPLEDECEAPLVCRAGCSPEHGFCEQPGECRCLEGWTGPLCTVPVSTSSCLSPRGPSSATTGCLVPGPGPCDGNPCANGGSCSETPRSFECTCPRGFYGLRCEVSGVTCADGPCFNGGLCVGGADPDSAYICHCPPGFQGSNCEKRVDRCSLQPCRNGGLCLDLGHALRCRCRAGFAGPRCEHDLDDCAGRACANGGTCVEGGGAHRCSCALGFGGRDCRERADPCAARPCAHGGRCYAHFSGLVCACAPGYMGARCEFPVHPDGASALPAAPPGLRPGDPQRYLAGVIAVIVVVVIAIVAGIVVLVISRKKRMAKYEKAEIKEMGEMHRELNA

B1: BI3 (antibody, human IgG1, kappa, V domains shown)
VH: QVQLVQSGAEVKKPGASVKVSCKASGYTFTSYYVHWVRQAPGQGLEWMVIINPGGGTTSYAQKFLGRVTMTRDTSTNTVYMELKSLRSEDTAVYYCARGEAVTGNYFYYGMDVWGQGTTVTVSS
VL: DIQMTQSPSAMSASVGDRVTITCRASQGISNYLVWFQQKPGKAPKRLIYAVSSLYSGVPSRFSGSGSGTEFTLTISSLQPEDFATYYCLQHDSYPYTFGQGTKLEIKR
MFI [1]: 2660 MFI
MFI [2]: 13200 MFI
MFI at 0.00128 nM [3]: 101 MFI
MFI at 0.0064 nM [3]: 105 MFI
MFI at 0.032 nM [3]: 110 MFI
MFI at 0.16 nM [3]: 148 MFI
MFI at 0.8 nM [3]: 252 MFI
MFI at 4 nM [3]: 498 MFI
MFI at 20 nM [3]: 807 MFI
MFI at 100 nM [3]: 967 MFI
Emax of OD450 nm binding value [4]: 0.06 OD450 nm
MFI [5]: 256
MFI [6]: 12600 MFI
MFI [7]: 882
MFI [8]: 1010
MFI [9]: 13400 MFI
Emax of OD450 nm binding value [10]: 0.05 OD450 and 0.04 OD450
Emax of OD450 nm binding value [11]: 0.05 OD450 and 0.07 OD450
MFI [12]: 112
MFI [13]: 452 MFI
MFI [14]: 7770 MFI
MFI [15]: 518
MFI [16]: 924 MFI
Emax of OD450 nm binding value [17]: 0.14 OD450 nm
MFI [18]: 795
MFI [19]: 310 MFI
MFI [20]: 155
MFI [21]: 121

B2: mab003 scFv-hFc (Fc fusion, part only; not given: VL-VH linker and human IgG1 Fc, not shown: another chain or arm of the molecule; a dimerising Fc or GST; small tags and cut ends)
VL: DVQITQSPSYLAASPGETITINCRASKSISKYLAWYQEKPGKTNKLLIYSGSTLHSGIPSRFSGSGSGTDFTLTISSLEPEDFAIYYCQQHNEYPLTFGGGTKLELK
VH: QVQLQQSGTELMKPGASVKLSCKATGYTFTGNWIEWVKQRPGHGLEWIGEILPGTGSTQYNEKFKGKATFTADPSSNTAYMQLSSLTTEDSAIYYCARWGSTVVAYDYWGQGTTLTVSS
MFI [22]: 10600 MFI
MFI [23]: 182 MFI
MFI [24]: 163 MFI
MFI [25]: 566 MFI
MFI [26]: 5570 MFI
MFI [27]: 197 MFI
MFI [28]: 1280 MFI
MFI [29]: 351 MFI
MFI [30]: 789 MFI
MFI [31]: 976 MFI
MFI [32]: 7470 MFI
MFI [33]: 243 MFI
MFI [34]: 732 MFI
MFI [35]: 1820 MFI
MFI [36]: 8420 MFI
MFI [37]: 566 MFI

B3: mab010 scFv-hFc (Fc fusion, not shown: small tags and cut ends; a dimerising Fc or GST)
scFv (part 1 of 2): DIQMTQSPASLSVSVGETVTITCRASENINSNLAWYQQKQGKSPQLLVYAATNLADGVPSRFSGSGSGTQFSLKISGLQSEDFGSYYCQHFWGLPWTFGGGTKLEIR
scFv (part 2 of 2): QVQLQQSGAELARPGASMKLSCKASGYTFTSYGISWVKQITGQGLEWIGEIFPRSGNTYDNENFRGKATLTADKSSSTAYLEVRSLTSEDSAVYFCARTTVFAPYYFDYWGQGTTLTVSS
MFI [23]: 113 MFI
MFI [27]: 161 MFI
MFI [28]: 855 MFI
MFI [29]: 278 MFI
MFI [30]: 707 MFI
MFI [31]: 1140 MFI
Emax of OD450 nm binding value [10]: 0.06 OD450
Emax of OD450 nm binding value [11]: 1.16 OD450
MFI [34]: 619 MFI
MFI [37]: 523 MFI

— EP4786492A1
